Laboratory results reported in PMC2987445 (Cancer biology & therapy, 2010).

Key:
[1] = system: Akt signaling (pAkt, S6 protein, 4EBP-1) in LNCaP and T47D cells; assay: Western blot of Akt pathway phosphorylation in LNCaP and T47D cells; settings: 3 hrs
[2] = target: Akt1 (Mus musculus, UniProt P31750); assay: Ex vivo IP-kinase assay of Akt1 in mouse tissues; settings: exogenous insulin ip
[3] = target: Akt3 (Mus musculus, UniProt Q9WUA6); assay: Ex vivo IP-kinase assay of Akt3 in mouse tissues; settings: exogenous insulin ip (1 or 5 μg)
Akt3, sequence (Q9WUA6 whole entry): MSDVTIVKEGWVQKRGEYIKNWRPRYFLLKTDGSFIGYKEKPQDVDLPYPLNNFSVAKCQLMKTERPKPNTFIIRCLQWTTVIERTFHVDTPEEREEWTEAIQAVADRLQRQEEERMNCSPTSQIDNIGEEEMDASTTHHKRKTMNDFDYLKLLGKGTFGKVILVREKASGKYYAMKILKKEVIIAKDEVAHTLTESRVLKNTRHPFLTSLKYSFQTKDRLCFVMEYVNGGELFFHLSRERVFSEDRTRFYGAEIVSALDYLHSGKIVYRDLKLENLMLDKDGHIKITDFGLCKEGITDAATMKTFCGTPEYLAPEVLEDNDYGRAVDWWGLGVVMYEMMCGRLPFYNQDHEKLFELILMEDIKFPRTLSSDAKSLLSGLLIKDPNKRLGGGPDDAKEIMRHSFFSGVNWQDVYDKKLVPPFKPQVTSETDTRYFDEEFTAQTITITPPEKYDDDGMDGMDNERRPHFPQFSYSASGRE

[4] = Blood glucose in nude mice; type: in vivo, mouse; settings: 40 μg insulin ip in animals treated with 100 mpk AKTi
[5] = Plasma insulin in nude mice; settings: 30 min after injection; for plasma insulin levels increase: no AKTi

Akt1, sequence (P31750 whole entry): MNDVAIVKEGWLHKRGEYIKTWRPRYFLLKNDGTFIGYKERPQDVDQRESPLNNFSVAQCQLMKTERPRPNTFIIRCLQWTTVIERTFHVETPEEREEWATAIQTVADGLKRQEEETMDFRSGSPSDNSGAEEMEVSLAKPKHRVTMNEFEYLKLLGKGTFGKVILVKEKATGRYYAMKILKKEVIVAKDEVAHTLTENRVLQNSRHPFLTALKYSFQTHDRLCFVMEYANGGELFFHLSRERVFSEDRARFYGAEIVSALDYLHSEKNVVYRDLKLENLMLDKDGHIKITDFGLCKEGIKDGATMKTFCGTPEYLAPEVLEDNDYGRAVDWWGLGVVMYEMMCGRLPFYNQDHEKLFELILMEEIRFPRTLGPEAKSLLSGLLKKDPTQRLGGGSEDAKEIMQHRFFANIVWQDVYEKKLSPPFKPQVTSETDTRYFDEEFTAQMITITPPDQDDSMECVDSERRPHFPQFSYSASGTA

## Cc1n[nH]c2ccc(-c3cncc(OC[C@@H](N)Cc4c[nH]c5ccccc45)c3)cc12 [A443654]
[1]
  blocking phosphorylation of S6 protein and 4EBP-1: equally effective at blocking phosphorylation
  hyper-phosphorylation of Akt: feed-back hyper-phosphorylation

## Insulin: Recombinant insulin obtained from Invitrogen, injected intraperitoneally
[2]
  induction of Akt1 activity in liver: ~10 fold
[3]
  maximal increase of Akt3 activity in lung: 40%
[4]
  effect on glucose levels: only a minor effect on glucose levels
[5]; 1 μg insulin ip
  plasma insulin levels increase: about 20 fold
[5]; 5 μg insulin ip
  plasma insulin levels increase: ~100 fold
[5]; insulin 5.0 μg per mouse ip
  Insulin, plasma: 77 ± 21 ng/mL
